{"source": "paper PMC12857291", "key": {"MeCP2-MBD WT [1]": {"target": "T1, MeCP2-MBD WT (UniProt P51608 80-164)", "T1 sequence (P51608 80-164)": "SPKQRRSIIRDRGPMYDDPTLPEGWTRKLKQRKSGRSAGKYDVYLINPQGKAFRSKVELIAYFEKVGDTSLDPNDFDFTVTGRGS", "experiment": "EMSA; 20 uM histone H3(15-36)K27me3 peptide; EMSA: 0.5 uM DNA, 0-20 uM protein, 50 mM HEPES pH 7.5, 100 mM NaCl, 1 h at 4 C; 6% native PAGE, 1X TBE, 80 V, 4 C; SYBR Gold; n=3", "settings": "protein: recombinant; tags: C-terminal 6xHis; label: none (SYBR Gold stain); blunt"}, "MeCP2-MBD WT [2]": {"target": "T1, MeCP2-MBD WT", "experiment": "EMSA; no peptide; EMSA: 0.5 uM DNA, 0-20 uM protein, 50 mM HEPES pH 7.5, 100 mM NaCl, 1 h at 4 C; 6% native PAGE, 1X TBE, 80 V, 4 C; SYBR Gold; n=3", "settings": "protein: recombinant; tags: C-terminal 6xHis; label: none (SYBR Gold stain); blunt"}}}
{"binder": "BDNF promoter duplex mC/mC (dsDNA, 5-methyl-dC at position 10 of the top strand and position 15 of the bottom strand (symmetric mCpG)) DNA 1: GCCCTGGAACGGAACTCTTCTGGCC DNA 2: GGCCAGAAGAGTTCCGTTCCAGGGC", "values": [{"measurement": "Kd", "setting": "MeCP2-MBD WT [1]", "value": "1300 ± 100", "unit": "nM"}, {"measurement": "Kd", "setting": "MeCP2-MBD WT [2]", "value": "1200 ± 100", "unit": "nM"}]}
